Results published in the DeepSol protein solubility set.

test: soluble on expression in E. coli; label from the status in PepcDB or PDB records

| Sequence | soluble on expression in E. coli |
| --- | --- |
| FPTPKPVPAPQQAAQQQAVTASAEAALAPATPITVTTDTVQAVIDEKSGDLRRLTLLKYKATGDENKPFILFGDGKEYTYVAQSELLDAQGNNILKGIGFSAPKKQYSLEGDKVEVRLSAPETRGLKIDKVYTFTKGSYLVNVRFDIANGSGQTANLSADYRIVRDHSEPEGQGYFTHSYVGPVVYTPEGNFQKVSFSDLDDDAKSGKSEAEYIRKTPTGWLGMIEHHFMSTWILQPKGRQSVCAAGECNIDIKRRNDKLYSTSVSVPLAAIQNGAKAEASINLYAGPQTTSVIANIADNLQLAKDYGKVHWFASPLFWLLNQLHNIIGN | not soluble |
| FQVPMSNLLTVHQNLPALPVDATSDEVRKNLMDMFRDRQAFSEHTWKMLLSVCRSWAAWCKLNNRKWFPAEPEDVRDYLLYLQARGLAVKTIQQHLGQLNMLHRRSGLPRPSDSNAVSLVMRRIRKENVDAGERAKQALAFERTDFDQVRSLMENSDRCQDIRNLAFLGIAYNTLLRIAEIARIRVKDISRTDGGRMLIHIGRTKTLVSTAGVEKALSLGVTKLVERWISVSGVADDPNNYLFCRVRKNGVAAPSATSQLSTRALEGIFEATHRLIYGAKDDSGQRYLAWSGHSARVGAARDMARAGVSIPEIMQAGGWTNVNIVMNYIRNLDSETGAMVRLLEDGD | soluble |
| FSIAVTGATGQLGGLVIQHLMAAVPASQIIAIVRNVEKASTLADQGVEVRHGDYNQPESLQKAFAGVSKLLFISGPHYDNTLLIVQHANVVKAARDAGVKHIAYTGYAFAEESIIPLAHVHLATEYATRTTNIPYTFLRNALYTDFFVNEGLRASTESGAIVTNAGSGIVNSVTRNELALAAATVLTEEGHENKTYNLVSNQPWTFDELAQILSEVSGKKVVHQPVSFEEEKNFMVNAGVPEPFAEITAAIYDAISKGEASKTSDDLQKLIGSLTPLKETVKQALKM | soluble |
| FYGEKATLNDGKLTSAELSQMTISGEKHVTEEEFGYCTEYVLKLGMSVSQEVEKQKFNQKKFESKVSKIATSVVVASDKDNGFVKVHAHTEKPNLLLELGLNYGEFELVKIENMNLQVAKQKPAPVKRNIKPAIVVTVPTEAFADRIREDYDIQAILCTDDTGAPSVFSLLEAVKLTHSSNIIFLLHDKNYFLSANEALKQLKHQKISADCVMTTNPIESLAALTVFNSDLNIHTNVKTMRRFVKGFASATITQASKKYKENRIEVNKGDFIAVANNSICVSEKELVQCVFNTIDHLLKKVKKPEFLLAYYGKDITAEEAEAMKEKIEKKYKLFCEFSPGEQKVFSYILGIQ | soluble |
| GAAASIQTTVNTLSERISSKLEQEANASAQTKCDIEIGNFYIRQNHGCNLTVKNMCSADADAQLDAVLSAATETYSGLTPEQKAYVPAMFTAALNIQTSVNTVVRDFENYVKQTCNSSAVVDNKLKIQNVIIDECYGAPGSPTNLEFINTGSSKGNCAIKALMQLTTKATTQIAPKQVAGTGVQ | soluble |
| GAITKAVFDNEQGQAQRLQTSSSVEHGQMLFKDANLKTPSDVLNAFAKLDSKMVKSHAAELSQLAERAMTEVMLETDSGKNLKALIGDDAVKSLAVRVVKDYGGGVAAAQKNPEVRINQMQAVFDMEVMHLKAAQRHIEGLASTDLNQGVYAEGLPEDAFNKAGVTNNVERAAAWIINASNSKGNDAENITSLLKEYATNGKDLLNMDNLKELHARLVPNVERDYRGPNISGGTLPSSIGGEGMLKQHIEGFLKENPVADKDLGKHLFAGVIGYHGFTDGNGRMGRMLYAIAELRNDSFNPLAMNAENSLHGIK | soluble |
| GAMAGSIRSKLSAIDVRQLGTVDYRTAWQLQRELADARVAGGADTLLLLEHPAVYTAGRRTETHERPIDGTPVVDTDRGGKITWHGPGQLVGYPIIGLAEPLDVVNYVRRLEESLIQVCADLGLHAGRVDGRSGVWLPGRPARKVAAIGVRVSRATTLHGFALNCDCDLAAFTAIVPCGISDAAVTSLSAELGRTVTVDEVRATVAAAVCAALDGVLPVGDRVPSHAVPSPL | soluble |
| GAMAWGSSWLLLKNLTAQIDGPTLRTLCMQHGPLVSFHPYLNQGIALCKYTTREEANKAQMALNNCVLANTTIFAESPSENEVQSIMQH | soluble |
| GAMDPAVMKIEYYSQVLDMEWGVNVLYPDANRVEEPECEDIPVLYLLHGMSGNHNSWLKRTNVERLLRGTNLIVVMPNTSNGWYTDTQYGFDYYTALAEELPQVLKRFFPNMTSKREKTFIAGLSMGGYGCFKLALTTNRFSHAASFSGALSFQNFSPESQNLGSPAYWRGVFGEIRDWTTSPYSLESLAKKSDKKTKLWAWCGEQDFLYEANNLAVKNLKKLGFDVTYSHSAGTHEWYYWEKQLEVFLTTLPIDFKLEERLT | soluble |
